Experimental findings from US20210063414A1, “METHODS FOR PREVENTING AND/OR TREATING BONE LOSS CONDITIONS BY MODULATING IRISIN” (Dana-Farber Cancer Institute, Inc., priority 2018, published 2021) are described below.

Experiment in all cases: Crosslinking/co-immunoprecipitation/mass spectrometry (TMT quantitative proteomics) to identify irisin receptors
Holding throughout (format): binding

Assay [1] concerns the target T1, MLO-Y4 cell surface proteins (Mus musculus, UniProt Q9WTP6).
T1 construct: endogenous in cells; host or cells: MLO-Y4
To be noted: co-precipitated protein Ak2 (KAD2_MOUSE). In short, it runs like this:
(§1)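 Mouse MLO-Y4 cells were switched to serum-free FreeStyle medium for 4 h, chilled, then exposed to 10 nM His-tagged irisin (or adipsin as control) for 20 min. Cells were crosslinked with 1.5 mM DTSSP (30 min, ice), and bound proteins were pulled down on Ni-NTA and eluted with 250 mM imidazole. Eluates were separated by SDS-PAGE, trypsin-digested in gel, TMT 6-plex labelled and quantified by MS3-based LC-MS/MS on an Orbitrap Fusion Lumos.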

For assay [2], the target named is T2, MLO-Y4 cell surface proteins (Mus musculus, UniProt Q62028).
T2 construct: endogenous in cells; host or cells: MLO-Y4
T2 sequence (Q62028 27-1487): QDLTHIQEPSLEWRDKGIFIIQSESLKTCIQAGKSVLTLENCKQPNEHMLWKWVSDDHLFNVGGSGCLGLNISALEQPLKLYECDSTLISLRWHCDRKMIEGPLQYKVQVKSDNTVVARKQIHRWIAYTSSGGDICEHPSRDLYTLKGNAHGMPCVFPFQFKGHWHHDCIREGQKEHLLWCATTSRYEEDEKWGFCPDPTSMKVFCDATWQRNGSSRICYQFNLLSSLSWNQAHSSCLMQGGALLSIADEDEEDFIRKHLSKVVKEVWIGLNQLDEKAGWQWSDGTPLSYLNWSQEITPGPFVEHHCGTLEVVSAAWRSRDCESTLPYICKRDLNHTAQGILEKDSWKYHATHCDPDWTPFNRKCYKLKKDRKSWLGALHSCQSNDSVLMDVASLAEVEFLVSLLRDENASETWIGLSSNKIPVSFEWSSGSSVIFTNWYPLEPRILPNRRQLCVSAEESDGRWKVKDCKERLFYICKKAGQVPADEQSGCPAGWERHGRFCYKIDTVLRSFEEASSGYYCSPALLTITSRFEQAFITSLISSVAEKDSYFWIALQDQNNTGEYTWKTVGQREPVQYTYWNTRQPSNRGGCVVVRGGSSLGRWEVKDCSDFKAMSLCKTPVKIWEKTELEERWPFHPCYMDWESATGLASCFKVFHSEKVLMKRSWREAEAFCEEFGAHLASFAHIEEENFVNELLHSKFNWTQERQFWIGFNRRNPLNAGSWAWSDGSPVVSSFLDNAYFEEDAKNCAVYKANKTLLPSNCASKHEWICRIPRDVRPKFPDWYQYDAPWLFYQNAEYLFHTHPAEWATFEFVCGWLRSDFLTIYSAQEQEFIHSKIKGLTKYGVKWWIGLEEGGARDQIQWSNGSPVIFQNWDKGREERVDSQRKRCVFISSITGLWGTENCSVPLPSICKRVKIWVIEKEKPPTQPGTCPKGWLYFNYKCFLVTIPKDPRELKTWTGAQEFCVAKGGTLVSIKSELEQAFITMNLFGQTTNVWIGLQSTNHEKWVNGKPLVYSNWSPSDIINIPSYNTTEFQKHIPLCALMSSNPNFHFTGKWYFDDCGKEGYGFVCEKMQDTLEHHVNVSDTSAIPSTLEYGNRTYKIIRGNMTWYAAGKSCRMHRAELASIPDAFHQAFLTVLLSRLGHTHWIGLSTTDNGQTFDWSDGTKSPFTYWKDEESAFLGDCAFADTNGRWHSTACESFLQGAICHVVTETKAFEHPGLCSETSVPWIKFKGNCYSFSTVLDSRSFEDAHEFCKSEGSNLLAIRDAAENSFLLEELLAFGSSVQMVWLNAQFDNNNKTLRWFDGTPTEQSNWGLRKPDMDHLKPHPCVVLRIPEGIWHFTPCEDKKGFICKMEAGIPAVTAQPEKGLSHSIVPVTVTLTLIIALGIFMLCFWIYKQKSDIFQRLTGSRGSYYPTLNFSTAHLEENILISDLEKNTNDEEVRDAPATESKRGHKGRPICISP
Particulars: co-precipitated protein Pla2r1 (PLA2R_MOUSE). The essentials:
as §1

The target of assay [3] is T3, MLO-Y4 cell surface proteins (Mus musculus, UniProt Q9JHS4).
T3 construct: endogenous in cells; host or cells: MLO-Y4
T3 sequence (Q9JHS4 57-634): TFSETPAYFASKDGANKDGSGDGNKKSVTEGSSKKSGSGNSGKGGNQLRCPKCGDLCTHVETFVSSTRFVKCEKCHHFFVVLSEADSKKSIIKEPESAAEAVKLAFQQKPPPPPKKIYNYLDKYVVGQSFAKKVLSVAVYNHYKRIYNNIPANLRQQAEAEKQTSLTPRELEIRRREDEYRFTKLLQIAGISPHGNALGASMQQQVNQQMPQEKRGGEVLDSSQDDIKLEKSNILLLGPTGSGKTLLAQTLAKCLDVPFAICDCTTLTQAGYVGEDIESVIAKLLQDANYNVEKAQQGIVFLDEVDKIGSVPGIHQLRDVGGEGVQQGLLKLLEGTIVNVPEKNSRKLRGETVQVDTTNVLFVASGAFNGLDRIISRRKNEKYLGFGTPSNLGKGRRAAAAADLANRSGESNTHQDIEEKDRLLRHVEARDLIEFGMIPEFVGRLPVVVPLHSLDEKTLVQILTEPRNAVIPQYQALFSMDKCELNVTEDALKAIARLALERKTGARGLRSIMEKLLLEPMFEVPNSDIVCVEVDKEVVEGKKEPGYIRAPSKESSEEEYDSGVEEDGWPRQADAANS
To be noted: co-precipitated protein Clpx (CLPX_MOUSE). In short, it runs like this: as §1

Assay [4] has as its target T4, MLO-Y4 cell surface proteins (Mus musculus, UniProt Q08189).
T4 construct: endogenous in cells; host or cells: MLO-Y4
T4 sequence (Q08189 1-693): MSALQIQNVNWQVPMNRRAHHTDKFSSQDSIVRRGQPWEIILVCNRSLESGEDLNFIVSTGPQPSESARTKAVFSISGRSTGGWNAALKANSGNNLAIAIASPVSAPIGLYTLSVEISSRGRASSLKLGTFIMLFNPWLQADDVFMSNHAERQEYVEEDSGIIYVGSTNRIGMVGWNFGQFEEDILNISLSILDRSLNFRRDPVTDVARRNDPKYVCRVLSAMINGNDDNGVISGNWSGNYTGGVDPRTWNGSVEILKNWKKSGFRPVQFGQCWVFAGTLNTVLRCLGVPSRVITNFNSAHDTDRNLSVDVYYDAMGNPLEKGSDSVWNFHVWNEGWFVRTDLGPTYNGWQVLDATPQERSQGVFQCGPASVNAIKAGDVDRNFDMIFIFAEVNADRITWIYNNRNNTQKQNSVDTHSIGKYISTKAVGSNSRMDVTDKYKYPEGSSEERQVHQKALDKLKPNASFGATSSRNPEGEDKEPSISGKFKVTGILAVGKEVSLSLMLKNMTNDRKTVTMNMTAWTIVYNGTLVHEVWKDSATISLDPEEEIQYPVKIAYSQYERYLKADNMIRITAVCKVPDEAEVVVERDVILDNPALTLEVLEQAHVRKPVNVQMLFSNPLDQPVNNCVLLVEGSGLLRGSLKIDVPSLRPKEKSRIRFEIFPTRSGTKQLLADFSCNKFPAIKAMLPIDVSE
Particulars: co-precipitated protein Tgm3 (TGM3_MOUSE). The essentials: as §1

As for adipsin, the TMT signal-to-noise ratio in assay [1] is 113.461; in assay [2] it was 519.664; in assay [3] it was 1517.78; in assay [4] it was 274.388.
